What was measured:
[1] = biological target: the molecule itself; assay: crystal structure; Qri7 30-407 at 10 mg/ml, 0.1 M Tris-HCl pH 7.5, 8% PEG8000, 0.2 M MgCl2, 4°C; homodimer by crystallographic symmetry
[2] = biological target: the molecule itself; assay: AUC; dimerization dissociation constants of the interface mutants (Supplementary Figure S5B); whether from equilibrium or velocity runs is not stated; 20°C; dimer to monomers
[3] = biological target: the molecule itself; assay: AUC; sedimentation velocity, 20°C, 42 000 rpm, 0.3125, 0.0625, 0.125, 0.250, 0.5 or 1 mg/ml protein
[4] = biological target: the molecule itself; assay: AUC; sedimentation equilibrium, 20°C, 0.25, 0.5 and 1 mg/ml, 10 000, 12 000, 15 000 rpm; fitted to a monomer-dimer model; dimer to monomers

| Protein | stoichiometry N [3] | further results |
| --- | --- | --- |
| Saccharomyces cerevisiae Qri7 (amino acids 30-407), crystallised form (enzyme, UniProt P43122 30-407, looked up, seleno-methionine (a seleno-methionine crystal data set was collected), One protomer in the asymmetric unit; the homodimer is made by crystallographic symmetry; also called scQri7; not shown: His6, N-terminal, cleaved) RKGYKVLAIETSCDDTCVSVLDRFSKSAAPNVLANLKDTLDSIDEGGIIPTKAHIHHQARIGPLTERALIESNAREGIDLICVTRGPGMPGSLSGGLDFAKGLAVAWNKPLIGVHHMLGHLLIPRMGTNGKVPQFPFVSLLVSGGHTTFVLSRAIDDHEILCDTIDIAVGDSLDKCGRELGFKGTMIAREMEKFINQDINDQDFALKLEMPSPLKNSASKRNMLSFSFSAFITALRTNLTKLGKTEIQELPEREIRSIAYQVQESVFDHIINKLKHVLKSQPEKFKNVREFVCSGGVSSNQRLRTKLETELGTLNSTSFFNFYYPPMDLCSDNSIMIGWAGIEIWESLRLVSDLDICPIRQWPLNDLLSVDGWRTDQL |  | binding result [1]: binds |
| Qri7 (30-407) K130A (enzyme, yeast (Saccharomyces cerevisiae), UniProt P43122 30-407, looked up, Qri7, S. cerevisiae, amino acids 30-407, dimer interface mutant; also called K130A mutant; source: E. coli BL21 (DE3) CodonPlus, purified (Ni-NTA or glutathione sepharose, SEC)) RKGYKVLAIETSCDDTCVSVLDRFSKSAAPNVLANLKDTLDSIDEGGIIPTKAHIHHQARIGPLTERALIESNAREGIDLICVTRGPGMPGSLSGGLDFAAGLAVAWNKPLIGVHHMLGHLLIPRMGTNGKVPQFPFVSLLVSGGHTTFVLSRAIDDHEILCDTIDIAVGDSLDKCGRELGFKGTMIAREMEKFINQDINDQDFALKLEMPSPLKNSASKRNMLSFSFSAFITALRTNLTKLGKTEIQELPEREIRSIAYQVQESVFDHIINKLKHVLKSQPEKFKNVREFVCSGGVSSNQRLRTKLETELGTLNSTSFFNFYYPPMDLCSDNSIMIGWAGIEIWESLRLVSDLDICPIRQWPLNDLLSVDGWRTDQL |  | Kd [2]: 2500 ± 200 nM |
| Qri7 (30-407) D44A (enzyme, yeast (Saccharomyces cerevisiae), UniProt P43122 30-407, looked up, Qri7, S. cerevisiae, amino acids 30-407, catalytic cleft mutant; source: E. coli BL21 (DE3) CodonPlus, purified (Ni-NTA or glutathione sepharose, SEC)) RKGYKVLAIETSCDATCVSVLDRFSKSAAPNVLANLKDTLDSIDEGGIIPTKAHIHHQARIGPLTERALIESNAREGIDLICVTRGPGMPGSLSGGLDFAKGLAVAWNKPLIGVHHMLGHLLIPRMGTNGKVPQFPFVSLLVSGGHTTFVLSRAIDDHEILCDTIDIAVGDSLDKCGRELGFKGTMIAREMEKFINQDINDQDFALKLEMPSPLKNSASKRNMLSFSFSAFITALRTNLTKLGKTEIQELPEREIRSIAYQVQESVFDHIINKLKHVLKSQPEKFKNVREFVCSGGVSSNQRLRTKLETELGTLNSTSFFNFYYPPMDLCSDNSIMIGWAGIEIWESLRLVSDLDICPIRQWPLNDLLSVDGWRTDQL | 2 |  |
| Qri7 (30-407) R207A (enzyme, yeast (Saccharomyces cerevisiae), UniProt P43122 30-407, looked up, Qri7, S. cerevisiae, amino acids 30-407, catalytic cleft mutant; source: E. coli BL21 (DE3) CodonPlus, purified (Ni-NTA or glutathione sepharose, SEC)) RKGYKVLAIETSCDDTCVSVLDRFSKSAAPNVLANLKDTLDSIDEGGIIPTKAHIHHQARIGPLTERALIESNAREGIDLICVTRGPGMPGSLSGGLDFAKGLAVAWNKPLIGVHHMLGHLLIPRMGTNGKVPQFPFVSLLVSGGHTTFVLSRAIDDHEILCDTIDIAVGDSLDKCGAELGFKGTMIAREMEKFINQDINDQDFALKLEMPSPLKNSASKRNMLSFSFSAFITALRTNLTKLGKTEIQELPEREIRSIAYQVQESVFDHIINKLKHVLKSQPEKFKNVREFVCSGGVSSNQRLRTKLETELGTLNSTSFFNFYYPPMDLCSDNSIMIGWAGIEIWESLRLVSDLDICPIRQWPLNDLLSVDGWRTDQL | 2 |  |
| Qri7 (residues 30-407), wild type, as used for analytical ultracentrifugation (enzyme, yeast (Saccharomyces cerevisiae), UniProt P43122 30-407, looked up, Qri7, S. cerevisiae, amino acids 30-407; also called wild-type Qri7; source: E. coli BL21 (DE3) CodonPlus, purified (Ni-NTA or glutathione sepharose, SEC)) RKGYKVLAIETSCDDTCVSVLDRFSKSAAPNVLANLKDTLDSIDEGGIIPTKAHIHHQARIGPLTERALIESNAREGIDLICVTRGPGMPGSLSGGLDFAKGLAVAWNKPLIGVHHMLGHLLIPRMGTNGKVPQFPFVSLLVSGGHTTFVLSRAIDDHEILCDTIDIAVGDSLDKCGRELGFKGTMIAREMEKFINQDINDQDFALKLEMPSPLKNSASKRNMLSFSFSAFITALRTNLTKLGKTEIQELPEREIRSIAYQVQESVFDHIINKLKHVLKSQPEKFKNVREFVCSGGVSSNQRLRTKLETELGTLNSTSFFNFYYPPMDLCSDNSIMIGWAGIEIWESLRLVSDLDICPIRQWPLNDLLSVDGWRTDQL | 2 | Kd [4]: 60 nM |
| Qri7 (30-407) D43A (enzyme, yeast (Saccharomyces cerevisiae), UniProt P43122 30-407, looked up, Qri7, S. cerevisiae, amino acids 30-407, catalytic cleft mutant; source: E. coli BL21 (DE3) CodonPlus, purified (Ni-NTA or glutathione sepharose, SEC)) RKGYKVLAIETSCADTCVSVLDRFSKSAAPNVLANLKDTLDSIDEGGIIPTKAHIHHQARIGPLTERALIESNAREGIDLICVTRGPGMPGSLSGGLDFAKGLAVAWNKPLIGVHHMLGHLLIPRMGTNGKVPQFPFVSLLVSGGHTTFVLSRAIDDHEILCDTIDIAVGDSLDKCGRELGFKGTMIAREMEKFINQDINDQDFALKLEMPSPLKNSASKRNMLSFSFSAFITALRTNLTKLGKTEIQELPEREIRSIAYQVQESVFDHIINKLKHVLKSQPEKFKNVREFVCSGGVSSNQRLRTKLETELGTLNSTSFFNFYYPPMDLCSDNSIMIGWAGIEIWESLRLVSDLDICPIRQWPLNDLLSVDGWRTDQL | 2 |  |
| Qri7 (30-407) R104A (enzyme, yeast (Saccharomyces cerevisiae), UniProt P43122 30-407, looked up, Qri7, S. cerevisiae, amino acids 30-407, dimer interface mutant; also called R104A mutant; source: E. coli BL21 (DE3) CodonPlus, purified (Ni-NTA or glutathione sepharose, SEC)) RKGYKVLAIETSCDDTCVSVLDRFSKSAAPNVLANLKDTLDSIDEGGIIPTKAHIHHQARIGPLTERALIESNAAEGIDLICVTRGPGMPGSLSGGLDFAKGLAVAWNKPLIGVHHMLGHLLIPRMGTNGKVPQFPFVSLLVSGGHTTFVLSRAIDDHEILCDTIDIAVGDSLDKCGRELGFKGTMIAREMEKFINQDINDQDFALKLEMPSPLKNSASKRNMLSFSFSAFITALRTNLTKLGKTEIQELPEREIRSIAYQVQESVFDHIINKLKHVLKSQPEKFKNVREFVCSGGVSSNQRLRTKLETELGTLNSTSFFNFYYPPMDLCSDNSIMIGWAGIEIWESLRLVSDLDICPIRQWPLNDLLSVDGWRTDQL |  | Kd [2]: 3000 ± 300 nM |
| Qri7 (30-407) I77E (enzyme, yeast (Saccharomyces cerevisiae), UniProt P43122 30-407, looked up, Qri7, S. cerevisiae, amino acids 30-407, catalytic cleft mutant; source: E. coli BL21 (DE3) CodonPlus, purified (Ni-NTA or glutathione sepharose, SEC)) RKGYKVLAIETSCDDTCVSVLDRFSKSAAPNVLANLKDTLDSIDEGGEIPTKAHIHHQARIGPLTERALIESNAREGIDLICVTRGPGMPGSLSGGLDFAKGLAVAWNKPLIGVHHMLGHLLIPRMGTNGKVPQFPFVSLLVSGGHTTFVLSRAIDDHEILCDTIDIAVGDSLDKCGRELGFKGTMIAREMEKFINQDINDQDFALKLEMPSPLKNSASKRNMLSFSFSAFITALRTNLTKLGKTEIQELPEREIRSIAYQVQESVFDHIINKLKHVLKSQPEKFKNVREFVCSGGVSSNQRLRTKLETELGTLNSTSFFNFYYPPMDLCSDNSIMIGWAGIEIWESLRLVSDLDICPIRQWPLNDLLSVDGWRTDQL | 2 |  |
| Qri7 (30-407) S258A (enzyme, yeast (Saccharomyces cerevisiae), UniProt P43122 30-407, looked up, Qri7, S. cerevisiae, amino acids 30-407, catalytic cleft mutant; source: E. coli BL21 (DE3) CodonPlus, purified (Ni-NTA or glutathione sepharose, SEC)) RKGYKVLAIETSCDDTCVSVLDRFSKSAAPNVLANLKDTLDSIDEGGIIPTKAHIHHQARIGPLTERALIESNAREGIDLICVTRGPGMPGSLSGGLDFAKGLAVAWNKPLIGVHHMLGHLLIPRMGTNGKVPQFPFVSLLVSGGHTTFVLSRAIDDHEILCDTIDIAVGDSLDKCGRELGFKGTMIAREMEKFINQDINDQDFALKLEMPSPLKNSASKRNMLSFSFAAFITALRTNLTKLGKTEIQELPEREIRSIAYQVQESVFDHIINKLKHVLKSQPEKFKNVREFVCSGGVSSNQRLRTKLETELGTLNSTSFFNFYYPPMDLCSDNSIMIGWAGIEIWESLRLVSDLDICPIRQWPLNDLLSVDGWRTDQL | 2 |  |

From PMC3695523, “Reconstitution and characterization of eukaryotic N6-threonylcarbamoylation of tRNA using a minimal enzyme system” (Nucleic Acids Research, 2013)
